Experimental findings from ChEMBL document CHEMBL1123679, “5-Quinone derivatives of 2'-deoxyuridine 5'-phosphate: inhibition and inactivation of thymidylate synthase, antitumor cell, and antiviral studies” (J Med Chem, 1987) are described below.

Substrate in data set [1]: CC1=C(C)C(=O)C(c2cn([C@H]3C[C@H](O)[C@@H](COP(=O)(O)O)O3)c(=O)[nH]c2=O)=C(C)C1=O
Conditions: L1210.

Substrate in data set [2]: CC1=C(C)C(=O)C(c2cn([C@H]3C[C@H](O)[C@@H](COP(=O)(O)O)O3)c(=O)[nH]c2=O)=CC1=O
Conditions: L1210.

Substrate in data set [3]: CC1=C(c2cn([C@H]3C[C@H](O)[C@@H](COP(=O)(O)O)O3)c(=O)[nH]c2=O)C(=O)c2ccccc2C1=O
Conditions: L1210.

Compound in data set [4]: COc1c(C)c(-c2cn([C@H]3C[C@H](O)[C@@H](COP(=O)(O)O)O3)c(=O)[nH]c2=O)c(OC)c2ccccc12
The experiment in a line: (§1) Ability to inhibit the thymidylate synthase from Lactobacillus casei was determined and expressed as inhibition constant(Km). Conditions: Lacticaseibacillus casei.

Compound in data set [5]: COc1c(C)c(C)c(OC)c(-c2cn([C@H]3C[C@H](O)[C@@H](COP(=O)(O)O)O3)c(=O)[nH]c2=O)c1C
The description is as §1. Conditions: Lacticaseibacillus casei.

Compound in data set [6]: O=C1C=CC(=O)C(c2cn([C@H]3C[C@H](O)[C@@H](COP(=O)(O)O)O3)c(=O)[nH]c2=O)=C1
Described as §1. Conditions: Lacticaseibacillus casei.

Substrate in data set [7]: CC1=C(C)C(=O)C(c2cn([C@H]3C[C@H](O)[C@@H](COP(=O)(O)O)O3)c(=O)[nH]c2=O)=C(C)C1=O
Conditions: Lacticaseibacillus casei.

Substrate in data set [8]: CC1=C(C)C(=O)C(c2cn([C@H]3C[C@H](O)[C@@H](COP(=O)(O)O)O3)c(=O)[nH]c2=O)=CC1=O
Conditions: Lacticaseibacillus casei.

Substrate in data set [9]: CC1=C(c2cn([C@H]3C[C@H](O)[C@@H](COP(=O)(O)O)O3)c(=O)[nH]c2=O)C(=O)c2ccccc2C1=O
Conditions: Lacticaseibacillus casei.

Substrate in data set [10]: COc1cc(-c2cn([C@H]3C[C@H](O)[C@@H](COP(=O)(O)O)O3)c(=O)[nH]c2=O)c(OC)c(C)c1C
Conditions: Lacticaseibacillus casei.

B1: Thymidylate synthase (Mus musculus), P07607 (protein)
chain: MLVVGSELQSDAQQLSAEAPRHGELQYLRQVEHILRCGFKKEDRTGTGTLSVFGMQARYSLRDEFPLLTTKRVFWKGVLEELLWFIKGSTNAKELSSKGVRIWDANGSRDFLDSLGFSARQEGDLGPVYGFQWRHFGAEYKDMDSDYSGQGVDQLQKVIDTIKTNPDDRRIIMCAWNPKDLPLMALPPCHALCQFYVVNGELSCQLYQRSGDMGLGVPFNIASYALLTYMIAHITGLQPGDFVHTLGDAHIYLNHIEPLKIQLQREPRPFPKLKILRKVETIDDFKVEDFQIEGYNPHPTIKMEMAV
Broadly, the Km is the concentration of substrate that gives half-maximal velocity. For the protein B1, the Km in [1] was found to be 0.57 µM; in data set [2], 2.46 µM; in data set [3] it was 0.6 µM.

B2: Thymidylate synthase (Lactobacillus casei), P00469 (protein)
chain: MLEQPYLDLAKKVLDEGHFKPDRTHTGTYSIFGHQMRFDLSKGFPLLTTKKVPFGLIKSELLWFLHGDTNIRFLLQHRNHIWDEWAFEKWVKSDEYHGPDMTDFGHRSQKDPEFAAVYHEEMAKFDDRVLHDDAFAAKYGDLGLVYGSQWRAWHTSKGDTIDQLGDVIEQIKTHPYSRRLIVSAWNPEDVPTMALPPCHTLYQFYVNDGKLSLQLYQRSADIFLGVPFNIASYALLTHLVAHECGLEVGEFIHTFGDAHLYVNHLDQIKEQLSRTPRPAPTLQLNPDKHDIFDFDMKDIKLLNYDPYPAIKAPVAV
With B2, the Km in data set [4] worked out at 5.25 µM; in data set [5], 5.25 µM; in data set [6] it was 7.6 µM; in [7] it was 6.98 µM; in data set [8], 6.98 µM; in data set [9], 6.41 µM. For the same protein, the Km in data set [10] worked out at 5.25 µM.
